# Measurements as given in the nanobody polyreactivity screen of Harvey et al. (2022).
# Assay: yeast display, Sf9 membrane polyspecificity reagent, FACS + sequencing; frameworks hold sequencing errors
# Method in brief: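 Genes from sorted yeast were amplified by colony PCR, read by MiSeq 2 × 250 sequencing and filtered on CDR length. These cells carried a synthetic nanobody library in Saccharomyces cerevisiae BJ5465 and were sorted by FACS into low and high (top ~1%) gates on anti-HA and streptavidin fluorescence. Polyreactivity is labelled according to the gate of origin.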
row,Sequence,polyreactivity (PSR sort gate)
1,QVQLVESGGGLVQAGGSLRLSCAASGSIFGDYAMGWYRQAPGKERELVAGITQSGSSTYYADSVKGRFTISRDNAKNTVYLQMNSLKPEDTAVYYCNKDWGPGPNEFDYWGQGTQVTVSS,low polyreactivity
2,QVQLVESGGGLVQAGGSLRLSCAASGSIFGENAMGWYRQAPGKERELVAAITSGGSTDYADSVKGRFTISRDNAKNTVYLQMNSLKPEDTAVYYCAASGRVGPGYWYDSWGQGTQVTVSS,low polyreactivity
3,QVQLVESGGGLVQAGGSLRLSCAASGSIFGEYVRGWYREAPGKERELVADISWRDGDTYYADSEKGRFTISRDNAKNTVYLQMNSLKPEDTAVYYCAADVIVPESYGYWPLSYYYWGQGTQVTVSS,low polyreactivity
4,QVQLVESGGGLVQAGGSLRLSCAASGSIFGFNALGWYRQAPGKERELVASITWSGSSTYYADSVKGRFTISRDNAKNTVYLQMNSLKPEDTAVYYCAKEFVHTHFYLWHVFKYGYWGQGTQVTVSS,low polyreactivity
5,QVQLVESGGGLVQAGGSLRLSCAASGSIFGFNTMGWYRQAPGKEMELVATINWSGGSTYYADSVKGRFTISRDNAKNTVYLQMNSLKPEDTAVYYCNAGPFSGRLFTTYASWGRYDYWGQGTQVTVSS,low polyreactivity
6,QVQLVESGGGLVQAGGSLRLSCAASGSIFGFYMGWYRQAPGKERELVAAISGSGGNTYYADSVKGRFTISRDNAKNTVYLQMNSLKPEDTAVYYCAVRYPGSRYLISKNGYWGQGTQVTVSS,high polyreactivity
7,QVQLVESGGGLVQAGGSLRLSCAASGSIFGGNAMGWYRQAPGKEREFVARITKRGGSTDYADSVKGRFTISRDNAKNTVYLQMNSLKPEDTAVYYCATGWTSKVHYRYGYWGQGTQVTVSS,high polyreactivity
8,QVQLVESGGGLVQAGGSLRLSCAASGSIFGGNAMGWYRQAPGKERELVAAITYSGGSTYYADSVKGRFTISRDNAKNTVYLQMNSLKPEDTAVYYCAASASVRGGGADQYVIAFDYWGQGTQVTVSS,low polyreactivity
9,QVQLVESGGGLVQAGGSLRLSCAASGSIFGGNAMGWYRQAPGKERELVATITVRGGSTYYADSVKGRFTISRDNAKHTVYLQMNSLKPEDTAVYYCAARGGYLLPKYDYWGQGTQVTVSS,low polyreactivity
10,QVQLVESGGGLVQAGGSLRLSCAASGSIFGGNDMGWYRQAPGKERELVAAITSSGGSTYYADSVKGRFTISRDNAKNTVYLQMNSLKPEDTAVYYCYADYYGPYRDYGYWGQGTQVTVSS,low polyreactivity
11,QVQLVESGGGLVQAGGSLRLSCAASGSIFGGYAMGWYRQAPGKEGELVAAISWSSSSTYYADSVKGRFTMSRDNAKNTVYLQMNSLKPEDTAVYYCATGIYPQTSDYDYWGQGTQVTVSS,low polyreactivity
12,QVQLVESGGGLVQAGGSLRLSCAASGSIFGGYAMGWYRQAPGKERELVAAITWGGGSTYYADSVKGRFTISRDNAKNTVYLQMNSLKPEDTAVYYCAADRSWYDWEDDYWGQGTQVTVSS,low polyreactivity
13,QVQLVESGGGLVQAGGSLRLSCAASGSIFGGYAMGWYRQAPGKERELVARIRGSTGSTYYADSVKGRFTISRDNAKNTVYFQMNSLKPEDTAVYYCNARYKYYRGSGMDSWGQGTQVTVSS,high polyreactivity
14,QVQLVESGGGLVQAGGSLRLSCAASGSIFGGYAMGWYRQAPGKERELVATINLGGGSTYADSVKGRFTISRDNAKNTVYLQMNSLKPEDTAVYYCAADVANSIYDYWGQGTQVTVSS,low polyreactivity
15,QVQLVESGGGLVQAGGSLRLSCAASGSIFGGYAMGWYRQAPGKERELVATSYADSVKGRFTISRDNAKNTVYLQMNSLKPEDTAVYYCAADPPLEGGHGYNYWGQGTQVTVSS,low polyreactivity
16,QVQLVESGGGLVQAGGSLRLSCAASGSIFGGYGLGWYRQAPGKERELVAASTSGSSTYYADSVKGRFTISRDNAKNTVYFPMNSLKPEDTAVSYFAARPFPHSAYEGDYWGRGTQVTVSS,low polyreactivity
17,QVQLVESGGGLVQAGGSLRLSCAASGSIFGGYTKGWYRQAPWKERELVAAISRRGGNTYYADSVKGRFTISRDNAQITVYLQMNSLKPEDTAVYYCAVLWPSARIPVKLDYWGQGTQVTVSS,high polyreactivity
18,QVQLVESGGGLVQAGGSLRLSCAASGSIFGHNAMGWYRQAPGKERELVAAITSTGGSTYYADSVKGRFTISRDNAKNTVYLQMNSLKPEDTAVYYCAKGWYAGYPYDYWGQGTQVTVSS,low polyreactivity
19,QVQLVESGGGLVQAGGSLRLSCAASGSIFGINAMGWYRQAPGKERELVAGISSRGGSTYYADSVKGRFTISRDNAKNTVYLQMNSLKPEDTAVYYCAKRYGRRYGRLHDYWGQGTQVTVSS,high polyreactivity
20,QVQLVESGGGLVQAGGSLRLSCAASGSIFGINVMGWYRHAPGKDREFVAAITSGTSTYYADSVKGRFTISRDNAKNSVYLQMNSLKPEDTAVYYCAALWSSRFVVHPQWYDYWGQGTQVTVSS,low polyreactivity
21,QVQLVESGGGLVQAGGSLRLSCAASGSIFGINVMGWYRQAPGKERELVAAITSGTSTYYADSVKGLFTISRDNANNTVYLQMNSLKPEDTAVYYCAALWSSRFVVHPQWYDYWGQGTQVTVSS,low polyreactivity
22,QVQLVESGGGLVQAGGSLRLSCAASGSIFGIYAMGWYRQAPGKERELVAAISRGGSTYYADSVKGRFTISRDNAKNTVYLQMNSLKPEDTAVYYCNAKLIVTPGRGDYWGQGTQVTVSS,high polyreactivity

row,Sequence,polyreactivity (PSR sort gate)
1,QVQLVESGGGLVQAGGSLRLSCAASGSIFGIYTMGWYRQAPGKERELVAAINSGGSTNYADSVKGRFTISRDNAKNTVYLQMNSLKPEDTAVYYCNAYIHPPGPRVYSREYDYWGHGTQVTVSS,low polyreactivity
2,QVQLVESGGGLVQAGGSLRLSCAASGSIFGIYVMGWYRQAPGKERELVAAISDGGSTYYADSVKGRFTISRDNAKNTVYLQMNSLKPEDTAVYYCAAEVHGWYSYYYWGQGTQVTVSS,high polyreactivity
3,QVQLVESGGGLVQAGGSLRLSCAASGSIFGKNVMGWYRQAPGKDRELVAAITSGASTYYADSVKGRFTISRDNAKNTDYLQMNSLKPDDTAVYYCAARRWRKYYSGYNYWGHGTQVTVSS,high polyreactivity
4,QVQLVESGGGLVQAGGSLRLSCAASGSIFGKYAMGWYRQAPGKERELVAAITWSGGSTRYADSVKGRFTISRDNAKNTVYLQMNSLKPEDTAVYYCAAPSTESKYYYWGQGTQVTVSS,high polyreactivity
5,QVQLVESGGGLVQAGGSLRLSCAASGSIFGLNAMGWSRPAPGKERELVAAISGGSTNYADSVKGRFTISRDNAKNTVYLQMNSLKPEDTAVYYCAARARRRYYYWGQGTQVTVSS,high polyreactivity
6,QVQLVESGGGLVQAGGSLRLSCAASGSIFGLNGMGWYIQAPGKERELVASISASGGSTYYADSVKGRFTISRDNAKNTVYLQMNSLKPEDTAVYYCAARVVYGAGLSSSGPKQYTRRFYYWGQGTQVTVSS,high polyreactivity
7,QVQLVESGGGLVQAGGSLRLSCAASGSIFGLYAMGCYRQAPGKERELVAAITWSSGNTYYADSVKGRFTISRDNAKNTVYLQMNSLKPEDTAVYYCAAEQIYFVYWEDDYWGQGTQVTVSS,high polyreactivity
8,QVQLVESGGGLVQAGGSLRLSCAASGSIFGLYAMGWSRQAPGKERELVASITGGGGTYYADSVKGRFTISRDNAKNTVYLQMNSLKPEDTAVYYCAAALYFGGDSYYYWGQGTQVTVSS,low polyreactivity
9,QVQLVESGGGLVQAGGSLRLSCAASGSIFGLYAMGWYRQAPGKERELVAAINQSGGSTSYADSVKGRFTISRDTAKNTVYLQMNSLKPEDTAVYYCAVAIVTSGPFPRDYWGQGTQVTVSS,low polyreactivity
10,QVQLVESGGGLVQAGGSLRLSCAASGSIFGLYAMGWYRQAPGKERELVAAINWNGGDTYYADSVKGRFTISRDYAKNTVYLQMNSLKPEDTAVYYCAAEQYRYGIRRRHYDYWGQGTEVTVSS,low polyreactivity
11,QVQLVESGGGLVQAGGSLRLSCAASGSIFGLYAMGWYRQAPGKERELVAAITASDGSTYYADSVKGRFTISRDNAKNTVYLQMNSLKPEDTADYYCNADAYSGYFLFDYWGQGTQVTVSS,low polyreactivity
12,QVQLVESGGGLVQAGGSLRLSCAASGSIFGLYVMGWDRQAPGKERELVATITSGGSTYYADSVKGRFTISRDNAKNTVYLQMNSLKPEDTAVYYCAADPQDAAYLKYLFYDYDYWGQGTQVTVSS,low polyreactivity
13,QVQLVESGGGLVQAGGSLRLSCAASGSIFGLYVMGWYRQAPGKERELVAAITGRGGSTYYADSVKGRFTISRDNAKNTVYLQMNSLKPEDTAVYYCAALRYTFAGRFDYWGQGTQVTVSS,high polyreactivity
14,QVQLVESGGGLVQAGGSLRLSCAASGSIFGNYAMGWYRQAPGKEREFVAAITWIGGSSYYADSVKGRFTISRDNAKNTVYLQMHSLKPEDTAVYYCARTSYARYRNGWTYDHWGQGTQVTVSS,low polyreactivity
15,QVQLVESGGGLVQAGGSLRLSCAASGSIFGNYAMGWYRQAPGKEREFVARISRGARTYYADSVKGRFTISRDNAKNTVYLQMNSLKPEDTAVYYCNARDYSVSYSVRFDYWGQGTQVTVSS,high polyreactivity
16,QVQLVESGGGLVQAGGSLRLSCAASGSIFGPNAMRWYRQAPGKERELVAAINGGTGTFYADSLKGRFTISRDNAKNTVYLQMNSLKPEDTAVYYCAADYGTHYFVRYYYWGQGTQVTVSS,high polyreactivity
17,QVQLVESGGGLVQAGGSLRLSCAASGSIFGPYAMGWYRQAPGKERELVATISSGGNTNYADSVKGRFTISRDNAKNTVYLQMNSLKPEDTAVYYCAADYTWSVYWWVDYWGQGTQVTVSS,low polyreactivity
18,QVQLVESGGGLVQAGGSLRLSCAASGSIFGPYAMGWYRQAPGKERELVATITTNGGSTYYADSVKGRFTISRDNAKNTVYLQMNSLKPEDTAVYYCATQHTDYVGAATTYNYWGQGTQVTVSS,low polyreactivity
19,QVQLVESGGGLVQAGGSLRLSCAASGSIFGRNAKGSYRQAPGKERELVAAITVSGGRTYYADSVKGRFTISRDNAKNTVYLQMNSLKPEDTAVYYCNKYPVYRAVYGGGYEYWGQGTQVTVSS,high polyreactivity
20,QVQLVESGGGLVQAGGSLRLSCAASGSIFGRNAMGLYRQAPGKERELVAAITDGGNTNYADSVKGRFTISRDNAKNTVYLQMNSLNPEDTAVYYCAARIPGTYGGRYGYDYWGQGTQVTVSS,low polyreactivity
21,QVQLVESGGGLVQAGGSLRLSCAASGSIFGRNAMGWYRPAPGKERELVAAISRRGGNTYYADSVKGRFTISRDNAKNTVYLQMNSLKPEDTAVYYCAAEVKTSYSYTHDGYWGQGTQVTVSS,high polyreactivity
